Assay results published in the Immune Epitope Database (IEDB).
pKd: −log10 of the molar value. Each block holds one sequence with its values, some of them ahead of it.

Legend:
[1] = target: HLA-A*26:03; assay: IEDB peptide-MHC binding, purified MHC/competitive/fluorescence; filed as Kd, often an IC50 or EC50 that approximates it; ≥ and ≤ were set here for values at or beyond the usual limits of such assays; details: source organism: Human immunodeficiency virus 1
[2] = target: HLA-A*26:02; assay: as above
[3] = target: HLA-A*03:01; assay: as above; details: source organism: Human immunodeficiency virus 1
[4] = target: HLA-A*11:01; assay: as above; details: source organism: Human immunodeficiency virus 1
[5] = target: HLA-A*30:01; assay: as above; details: source organism: Human immunodeficiency virus 1
[6] = target: HLA-A*31:01; assay: as above; details: source organism: Human immunodeficiency virus 1
[7] = target: HLA-B*08:02; assay: as above; details: source organism: Human immunodeficiency virus 1
[8] = target: HLA-B*08:03; assay: as above; details: source organism: Human immunodeficiency virus 1
[9] = target: HLA-B*46:01; assay: IEDB peptide-MHC binding, purified MHC/direct/fluorescence; filed as Kd, often an IC50 or EC50 that approximates it; ≥ and ≤ were set here for values at or beyond the usual limits of such assays; details: source organism: Neogale vison
[10] = target: HLA-B*15:02; assay: as above; details: source organism: Cryptosporidium parvum Iowa II
[11] = target: HLA-A*02:01; assay: IEDB peptide-MHC binding, purified MHC/competitive/radioactivity; filed as Kd, often an IC50 or EC50 that approximates it; ≥ and ≤ were set here for values at or beyond the usual limits of such assays; details: source organism: Homo sapiens
[12] = target: HLA-A*29:02; assay: as above; details: source organism: Homo sapiens
[13] = target: HLA-B*57:01; assay: as above; details: source organism: Homo sapiens
[14] = target: HLA-B*58:01; assay: as above; details: source organism: Homo sapiens
[15] = target: HLA-A*02:07; assay: as above; details: source organism: Homo sapiens
[16] = target: HLA-A*02:01; assay: IEDB peptide-MHC binding, purified MHC/direct/fluorescence; filed as Kd, often an IC50 or EC50 that approximates it; ≥ and ≤ were set here for values at or beyond the usual limits of such assays; details: source organism: Cryptosporidium parvum
[17] = target: HLA-B*73:01; assay: as above
[18] = target: HLA-B*27:05; assay: as above; details: source organism: Cryptosporidium parvum
[19] = target: HLA-A*26:03; assay: as above; details: source organism: Cryptosporidium parvum Iowa II
[20] = target: HLA-A*68:02; assay: as above; details: source organism: Cryptosporidium parvum
[21] = target: HLA-B*07:02; assay: as above; details: source organism: Cryptosporidium parvum
[22] = target: HLA-B*27:02; assay: as above; details: source organism: Cryptosporidium parvum Iowa II
[23] = target: HLA-A*03:01; assay: as above; details: source organism: Cryptosporidium parvum
[24] = target: HLA-A*11:01; assay: as above; details: source organism: Cryptosporidium parvum
[25] = target: HLA-A*01:01; assay: as above; details: source organism: Cryptosporidium parvum
[26] = target: HLA-B*48:01; assay: as above; details: source organism: Cryptosporidium parvum
[27] = target: HLA-A*69:01; assay: as above; details: source organism: Cryptosporidium parvum
[28] = target: HLA-B*15:09; assay: as above; details: source organism: Cryptosporidium parvum Iowa II
[29] = target: HLA-B*15:01; assay: as above; details: source organism: Cryptosporidium parvum
[30] = target: HLA-B*57:01; assay: as above; details: source organism: Cryptosporidium parvum
[31] = target: HLA-B*58:01; assay: as above; details: source organism: Cryptosporidium parvum
[32] = target: HLA-B*18:01; assay: as above; details: source organism: Cryptosporidium parvum
[33] = target: HLA-A*31:01; assay: as above; details: source organism: Cryptosporidium parvum
[34] = target: HLA-A*26:01; assay: as above; details: source organism: Cryptosporidium parvum Iowa II
[35] = target: HLA-B*08:02; assay: as above; details: source organism: Cryptosporidium parvum Iowa II
[36] = target: HLA-B*08:03; assay: as above; details: source organism: Cryptosporidium parvum Iowa II
[37] = target: HLA-B*39:01; assay: IEDB peptide-MHC binding, purified MHC/competitive/fluorescence; filed as Kd, often an IC50 or EC50 that approximates it; ≥ and ≤ were set here for values at or beyond the usual limits of such assays; details: source organism: Cryptosporidium parvum Iowa II
[38] = target: HLA-B*15:17; assay: as above; details: source organism: Cryptosporidium parvum Iowa II
[39] = target: HLA-C*06:02; assay: IEDB peptide-MHC binding, purified MHC/direct/fluorescence; filed as Kd, often an IC50 or EC50 that approximates it; ≥ and ≤ were set here for values at or beyond the usual limits of such assays; details: source organism: Escherichia coli K-12
[40] = target: HLA-B*40:13; assay: IEDB peptide-MHC binding, purified MHC/competitive/fluorescence; filed as Kd, often an IC50 or EC50 that approximates it; ≥ and ≤ were set here for values at or beyond the usual limits of such assays; details: source organism: Escherichia coli K-12
[41] = target: HLA-A*32:07; assay: as above; details: source organism: Escherichia coli K-12
[42] = target: HLA-B*45:06; assay: as above; details: source organism: Escherichia coli K-12
[43] = target: HLA-B*15:42; assay: as above; details: source organism: Escherichia coli K-12
[44] = target: HLA-B*83:01; assay: as above; details: source organism: Escherichia coli K-12
[45] = target: HLA-B*27:20; assay: as above; details: source organism: Escherichia coli K-12

Sequence: IATLYCVHQK
- pKd [1]: ≤ 4.70
- pKd ([2]; source organism: Human immunodeficiency virus 1): ≤ 4.70
- pKd [3]: ≤ 4.70
- pKd [4]: 5.77
- pKd [5]: ≤ 5.30
- pKd [6]: ≤ 4.70
- pKd [7]: ≤ 4.70
- pKd [8]: ≤ 4.70

Sequence: KMKEIAEAY
- pKd [9]: 6.35
- pKd [10]: 6.74
- pKd [11]: ≤ 4.11
- pKd [12]: 7.05
- pKd [13]: 5.54
- pKd [14]: 5.69
- pKd [15]: ≤ 4.27

Sequence: RKWGLDFCY
- pKd [16]: ≤ 4.70
- pKd ([17]; source organism: Cryptosporidium parvum): ≤ 4.70
- pKd [18]: 7.26
- pKd [19]: ≤ 4.70
- pKd [20]: ≤ 4.70
- pKd [21]: 5.05
- pKd [22]: 5.15
- pKd [23]: ≤ 4.70
- pKd [24]: ≤ 4.70
- pKd [25]: ≤ 4.70
- pKd [26]: ≤ 4.70
- pKd [27]: ≤ 4.70
- pKd [28]: ≤ 4.70
- pKd [29]: 5.68
- pKd [30]: ≤ 4.70
- pKd [31]: ≤ 4.70
- pKd [32]: ≤ 4.70
- pKd [33]: ≤ 4.70
- pKd [34]: ≤ 4.70
- pKd [35]: ≤ 4.70
- pKd [36]: ≤ 4.70
- pKd ([2]; source organism: Cryptosporidium parvum Iowa II): ≤ 4.70
- pKd [37]: ≤ 4.70
- pKd [38]: ≤ 4.70

- pKd ([17]; source organism: Escherichia coli O157:H7): 5.22
- pKd [39]: 5.77
- pKd [40]: ≥ 9.00
- pKd [41]: 8.92
- pKd [42]: ≤ 5.30
- pKd [43]: ≤ 5.30
- pKd [44]: ≤ 5.30
- pKd [45]: ≥ 10.00
Sequence: RQWGMGFLL
